Experimental findings from article PMC7264359, “AcrIF9 tethers non-sequence specific dsDNA to the CRISPR RNA-guided surveillance complex” (Nature Communications, 2020) are described below.

Data set [1] has as its target type I-F CRISPR RNA-guided surveillance complex (Csy) (Pseudomonas aeruginosa) (UniProt Q02ML9). Kind of data set: cryo-EM structure; Csy–AcrIF9 complex co-expressed in E. coli and co-purified (Ni-NTA, Superdex 200 in 20 mM HEPES pH 7.5, 100 mM NaCl, 5% glycerol, 1 mM TCEP); nominal resolution ~3.9 Å.
Data set [2] deals with the molecule itself. The data set is described as above.

Sequence of type I-F CRISPR RNA-guided surveillance complex (Csy) (Pseudomonas aeruginosa) (Q02ML9 whole entry, chain 1 of 3): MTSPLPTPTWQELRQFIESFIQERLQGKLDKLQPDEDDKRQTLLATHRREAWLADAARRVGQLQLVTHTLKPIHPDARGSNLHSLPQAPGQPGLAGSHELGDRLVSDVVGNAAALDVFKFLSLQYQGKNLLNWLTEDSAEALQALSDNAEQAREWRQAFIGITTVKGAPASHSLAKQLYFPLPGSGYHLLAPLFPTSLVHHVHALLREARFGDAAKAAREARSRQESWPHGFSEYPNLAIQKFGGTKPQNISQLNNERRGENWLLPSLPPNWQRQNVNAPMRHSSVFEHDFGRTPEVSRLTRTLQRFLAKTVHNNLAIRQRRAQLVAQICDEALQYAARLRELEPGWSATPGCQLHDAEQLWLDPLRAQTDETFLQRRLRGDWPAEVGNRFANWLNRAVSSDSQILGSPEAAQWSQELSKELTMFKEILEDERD
Sequence of type I-F CRISPR RNA-guided surveillance complex (Csy) (Pseudomonas aeruginosa) (Q02MM0 whole entry, chain 2 of 3, further chain): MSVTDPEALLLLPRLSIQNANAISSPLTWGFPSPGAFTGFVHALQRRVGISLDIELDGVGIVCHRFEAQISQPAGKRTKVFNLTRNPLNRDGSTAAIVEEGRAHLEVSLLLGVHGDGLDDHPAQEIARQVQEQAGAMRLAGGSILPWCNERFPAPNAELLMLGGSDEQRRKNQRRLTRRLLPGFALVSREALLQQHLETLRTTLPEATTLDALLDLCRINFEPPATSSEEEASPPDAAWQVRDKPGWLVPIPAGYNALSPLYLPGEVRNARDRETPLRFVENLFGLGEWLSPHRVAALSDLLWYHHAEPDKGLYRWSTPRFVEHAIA
Sequence of type I-F CRISPR RNA-guided surveillance complex (Csy) (Pseudomonas aeruginosa) (Q02MM2 whole entry, chain 4 of 3, further chain): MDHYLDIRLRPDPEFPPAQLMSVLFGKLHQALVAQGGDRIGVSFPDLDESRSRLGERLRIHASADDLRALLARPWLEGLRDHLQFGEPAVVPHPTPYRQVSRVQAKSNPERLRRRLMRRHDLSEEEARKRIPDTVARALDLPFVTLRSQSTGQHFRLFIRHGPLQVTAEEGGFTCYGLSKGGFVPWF

For the molecule “anti-CRISPR protein IF9 (AcrIF9), co-expressed with Csy (natural protein)”, in data set [1], the stoichiometry N (commonly a count of units in the complex or per binding partner) was 2.

B1: Cas7f (natural protein, Pseudomonas aeruginosa)
chain: SKPILSTASVLAFERKLDPSDALMSAGAWAQRDASQEWPAVTVREKSVRGTISNRLKTKDRDPAKLDASIQSPNLQTVDVANLPSDADTLKVRFTLRVLGGAGTPSACNDAAYRDKLLQTVATYVNDQGFAELARRYAHNLANARFLWRNRVGAEAVEVRINHIRQGEVARAWRFDALAIGLRDFKADAELDALAELIASGLSGSGHVLLEVVAFARIGDGQEVFPSQELILDKGDKKGQKSKTLYSVRDAAAIHSQKIGNALRTIDTWYPDEDGLGPIAVEPYGSVTSQGKAYRQPKQKLDFYTLLDNWVLRDEAPAVEQQHYVIANLIRGGVFGEAEEK
notes: Cas7f, backbone subunit of the type I-F Csy complex of Pseudomonas aeruginosa; Stood in the assay as a subunit of the Csy complex (six copies along the crRNA); also called Cas7.4f; Cas7.6f; source: E. coli BL21 (DE3), co-expressed with the other Csy genes, a synthetic CRISPR and AcrIF9; purified within the complex (Ni-NTA, Superdex 200)
As for B1, in data set [2], the “stoichiometry N” value was found to be 6.
